# Laboratory results from EP4566619A1 (AvenCell Therapeutics Inc., dated 2025).
# T1: CD20 (UniProt P11836 1-297, limits assumed)
# T1 sequence (looked up): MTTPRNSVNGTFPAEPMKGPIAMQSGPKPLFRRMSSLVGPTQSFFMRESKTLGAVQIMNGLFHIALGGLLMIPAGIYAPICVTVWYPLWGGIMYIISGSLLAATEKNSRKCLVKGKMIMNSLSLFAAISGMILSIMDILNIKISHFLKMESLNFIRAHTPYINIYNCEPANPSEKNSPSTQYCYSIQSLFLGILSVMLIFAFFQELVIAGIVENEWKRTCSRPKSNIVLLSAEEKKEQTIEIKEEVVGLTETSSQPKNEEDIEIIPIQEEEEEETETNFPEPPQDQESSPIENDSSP
# T2: CD19 (UniProt P15391 20-556, limits assumed)
# T2 sequence (looked up): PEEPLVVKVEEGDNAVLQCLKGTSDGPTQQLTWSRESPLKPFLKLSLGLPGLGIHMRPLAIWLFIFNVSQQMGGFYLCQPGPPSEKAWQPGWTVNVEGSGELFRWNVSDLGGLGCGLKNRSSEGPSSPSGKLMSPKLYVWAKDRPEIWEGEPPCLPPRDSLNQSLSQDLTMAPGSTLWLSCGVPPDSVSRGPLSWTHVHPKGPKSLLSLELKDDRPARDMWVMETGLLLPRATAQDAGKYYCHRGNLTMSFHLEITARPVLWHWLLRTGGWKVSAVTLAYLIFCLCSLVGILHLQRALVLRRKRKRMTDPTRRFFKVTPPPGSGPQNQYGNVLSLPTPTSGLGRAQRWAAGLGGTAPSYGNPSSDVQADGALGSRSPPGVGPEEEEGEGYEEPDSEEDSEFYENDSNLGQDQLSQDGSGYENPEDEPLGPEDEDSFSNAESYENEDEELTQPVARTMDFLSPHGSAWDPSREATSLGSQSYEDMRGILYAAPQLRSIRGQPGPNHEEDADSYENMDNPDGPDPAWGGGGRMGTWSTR
# B1: R-TM-19/20_21 (other)
# chain 1: not shown
# chain 2: GQVQLVQSGAEVKKPGASVKVSCKASGYTFTHYYIYWVRQAPGQGLEWMGGVNPSNGGTHFNEKFKSRVTMTRDTSISTAYMELSRLRSDDTAVYYCARSEYDYGLGFAYWGQGTLVTVSSASTKGPSVFPLAPSSKSTSGGTAALGCLVKDYFPEPVTVSWNSGALTSGVHTFPAVLQSSGLYSLSSVVTVPSSSLGTQTYICNVNHKPSNTKVDKKVEPKSCDKTHTCPPCPAPPVAGPSVFLFPPKPKDTLMISRTPEVTCVVVDVSHEDPEVKFNWYVDGVEVHNAKTKPREEQYNSTYRVVSVLTVLHQDWLNGKEYKCKVSNKGLPSSIEKTISKAKGQPREPQVYTLPPSRDELTKNQVSLWCLVKGFYPSDIAVEWESNGQPENNYKTTPPVLDSDGSFFLYSKLTVDKSRWQQGNVFSCSVMHEALHNHYTQKSLSLSPGK
# chain 3: GQVQLVESGGGLVQPGGSLRLSCAASGRTFSNYNMGWFRQAPGQGLEFVAAIDWSGGSPYYADSVKGRFTISRDNSKNTLYLQMNSLRAEDTAVYYCAAPLSYGSTWLADYWGQGTLVTVSSEPKSCDKTHTCPPCPAPPVAGPSVFLFPPKPKDTLMISRTPEVTCVVVDVSHEDPEVKFNWYVDGVEVHNAKTKPREEQYNSTYRVVSVLTVLHQDWLNGKEYKCKVSNKGLPSSIEKTISKAKGQPREPQVYTLPPSRDELTKNQVSLSCAVKGFYPSDIAVEWESNGQPENNYKTTPPVLDSDGSFFLVSKLTVDKSRWQQGNVFSCSVMHEALHNHYTQKSLSLSPGK
# notes: Three-chain CD19/CD20 targeting module
# B2: R-TM-19/20_5 (other)
# chain 1: not shown
# chain 2: GQVQLVQSGAEVKKPGASVKVSCKASGYTFTHYYIYWVRQAPGQGLEWMGGVNPSNGGTHFNEKFKSRVTMTRDTSISTAYMELSRLRSDDTAVYYCARSEYDYGLGFAYWGQGTLVTVSSASTKGPSVFPLAPSSKSTSGGTAALGCLVKDYFPEPVTVSWNSGALTSGVHTFPAVLQSSGLYSLSSVVTVPSSSLGTQTYICNVNHKPSNTKVDKKVEPKSCDKTHTCPPCPAPPVAGPSVFLFPPKPKDTLMISRTPEVTCVVVDVSHEDPEVKFNWYVDGVEVHNAKTKPREEQYNSTYRVVSVLTVLHQDWLNGKEYKCKVSNKGLPSSIEKTISKAKGQPREPQVYTLPPSRDELTKNQVSLWCLVKGFYPSDIAVEWESNGQPENNYKTTPPVLDSDGSFFLYSKLTVDKSRWQQGNVFSCSVMHEALHNHYTQKSLSLSPGK
# chain 3: GQVQLVESGGGLVQPGGSLRLSCAASGRTFSNYNMGWFRQAPGQGLEFVAAIDWSGGSPYYADSVKGRFTISRDNSKNTLYLQMNSLRAEDTAVYYCAAPLSYGSTWLADYWGQGTLVTVSSGGGGSGGGGSQVQLVESGGGLVQPGGSLRLSCAASGRTFSNYNMGWFRQAPGQGLEFVAAIDWSGGSPYYADSVKGRFTISRDNSKNTLYLQMNSLRAEDTAVYYCAAPLSYGSTWLADYWGQGTLVTVSSEPKSCDKTHTCPPCPAPPVAGPSVFLFPPKPKDTLMISRTPEVTCVVVDVSHEDPEVKFNWYVDGVEVHNAKTKPREEQYNSTYRVVSVLTVLHQDWLNGKEYKCKVSNKGLPSSIEKTISKAKGQPREPQVYTLPPSRDELTKNQVSLSCAVKGFYPSDIAVEWESNGQPENNYKTTPPVLDSDGSFFLVSKLTVDKSRWQQGNVFSCSVMHEALHNHYTQKSLSLSPGK
# notes: Three-chain CD19/CD20 targeting module; also called R-TM 19/20_05
# B3: R-TM-19/20_23 (other)
# chain 1: not shown
# chain 2: GQVQLVQSGAEVKKPGASVKVSCKASGYTFTHYYIYWVRQAPGQGLEWMGGVNPSNGGTHFNEKFKSRVTMTRDTSISTAYMELSRLRSDDTAVYYCARSEYDYGLGFAYWGQGTLVTVSSASTKGPSVFPLAPSSKSTSGGTAALGCLVKDYFPEPVTVSWNSGALTSGVHTFPAVLQSSGLYSLSSVVTVPSSSLGTQTYICNVNHKPSNTKVDKKVEPKSCDKTHTCPPCPAPPVAGPSVFLFPPKPKDTLMISRTPEVTCVVVDVSHEDPEVKFNWYVDGVEVHNAKTKPREEQYNSTYRVVSVLTVLHQDWLNGKEYKCKVSNKGLPSSIEKTISKAKGQPREPQVYTLPPSRDELTKNQVSLWCLVKGFYPSDIAVEWESNGQPENNYKTTPPVLDSDGSFFLYSKLTVDKSRWQQGNVFSCSVMHEALHNHYTQKSLSLSPGK
# chain 3: GQVQLVESGGGLVQPGGSLRLSCAASGRTFSNYNMGWFRQAPGQGLEFVAAIDWSGGSPYYAASVRGRFTISRDNSKNTLYLQMNSLRAEDTAVYYCAAPLSYGSTWLADYWGQGTLVTVSSEPKSCDKTHTCPPCPAPPVAGPSVFLFPPKPKDTLMISRTPEVTCVVVDVSHEDPEVKFNWYVDGVEVHNAKTKPREEQYNSTYRVVSVLTVLHQDWLNGKEYKCKVSNKGLPSSIEKTISKAKGQPREPQVYTLPPSRDELTKNQVSLSCAVKGFYPSDIAVEWESNGQPENNYKTTPPVLDSDGSFFLVSKLTVDKSRWQQGNVFSCSVMHEALHNHYTQKSLSLSPGK
# notes: as for B1
# Legend:
# CD20 [1] = target: T1, CD20; assay: cell-based or functional assay
# CD19 [2] = target: T2, CD19; assay: cell-based or functional assay
# CD19 [3] = target: T2, CD19; assay: cellular binding assay, flow cytometry (gMFI) on OCI-AML3-CD19 cells
# CD20 [4] = target: T1, CD20; assay: cellular binding assay, flow cytometry (gMFI) on OCI-AML3-CD20 cells
Binder,CD20 killing EC50 [pM] (CD20 [1]),CD19 killing EC50 [pM] (CD19 [2]),EC50 (CD19 [3]) [nM],EC50 (CD20 [4]) [nM]
B1,12.6,1.4,2.2,53.8
B2,9.8,6.2,14.7,24.1
B3,2.1,1,3.4,23
